In article PMC7703809 (ChemMedChem, 2020):
Blank lines part the entries; values can stand above or below the molecule they belong to. Non-standard residues stand in square brackets, D forms with d. Residues, ends and D or L forms follow the SMILES beside them. No end group written: not given here. *: point of attachment. Benzoyl(4-octyl) = CCCCCCCCc1ccc(C(=O)*)cc1; pT = C[C@@H](OP(=O)(O)O)[C@H](N)C(=O)O

What was measured:
PLK3 PBD (335–646) = target: T1, PLK3 PBD (335–646) (Homo sapiens, UniProt Q9H4B4); assay: Fluorescence polarization competitive binding assay, PLK3 PBD
T1 sequence (Q9H4B4 335-646): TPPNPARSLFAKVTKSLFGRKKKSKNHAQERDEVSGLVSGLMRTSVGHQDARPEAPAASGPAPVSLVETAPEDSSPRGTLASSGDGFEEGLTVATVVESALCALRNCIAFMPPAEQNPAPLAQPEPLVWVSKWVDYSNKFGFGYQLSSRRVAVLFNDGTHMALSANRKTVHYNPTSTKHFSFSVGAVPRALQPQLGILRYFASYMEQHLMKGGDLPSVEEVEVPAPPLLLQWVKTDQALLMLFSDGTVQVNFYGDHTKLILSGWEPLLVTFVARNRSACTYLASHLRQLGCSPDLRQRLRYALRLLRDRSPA

PLK1 PBD (367–603) = PLK1 PBD (367–603) (Homo sapiens, UniProt P53350); assay: Fluorescence polarization competitive binding assay, PLK1 PBD; settings: for Selectivity Index: PLK1 vs PLK3 PBD, accounting for 5-fold difference in tracer affinity
Sequence of PLK1 PBD (367–603) (P53350 367-603): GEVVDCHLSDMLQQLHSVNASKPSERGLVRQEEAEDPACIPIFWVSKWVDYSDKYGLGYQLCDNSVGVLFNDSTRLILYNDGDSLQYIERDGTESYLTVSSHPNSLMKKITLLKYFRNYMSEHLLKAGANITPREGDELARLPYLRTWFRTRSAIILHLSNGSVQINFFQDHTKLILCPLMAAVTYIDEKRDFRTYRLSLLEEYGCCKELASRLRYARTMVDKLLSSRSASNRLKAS

[1] = target: T2, PLK3 fluorescein tracer phosphopeptide (also: fluorescein label, place not given here); assay: fluorescence polarization
T2 chain: GPLATS[pT]PKNG

chimeric peptide 9 = target: T3, chimeric peptide 9; assay: fluorescence polarization competition
T3 chain: Ac-PLHS[pT]PKNG

FLIP 19 = target: T4, FLIP 19; assay: fluorescence polarization competition
T4 chain: {4‑butylbenzoyl}-S[pT]PNGL

PLK3 consensus peptide 7 = target: T5, PLK3 consensus peptide 7; assay: fluorescence polarization competition
T5 chain: GPLATS[pT]PKNG

Cdc25C phosphopeptide 1 = target: T6, Cdc25C phosphopeptide 1 (Homo sapiens); assay: fluorescence polarization competition
T6 chain: LLCS[pT]PNGL

FLIP 21 = target: T7, FLIP 21; assay: fluorescence polarization competition
T7 chain: {Benzoyl(4-octyl)}-S[pT]PNGL

chimeric peptide 8 = target: T8, chimeric peptide 8; assay: fluorescence polarization competition
T8 chain: GPLATS[pT]PNGL

PBIP phosphopeptide 5 = target: T9, PBIP phosphopeptide 5 (Homo sapiens); assay: fluorescence polarization competition
T9 chain: Ac-LHS[pT]AI

PBIP phosphopeptide 4 = target: T10, PBIP phosphopeptide 4 (Homo sapiens); assay: fluorescence polarization competition
T10 chain: Ac-PLHS[pT]AI

PBIP phosphopeptide 6 = target: T11, PBIP phosphopeptide 6 (Homo sapiens); assay: fluorescence polarization competition
T11 chain: Ac-PLHS[pT]A

chimeric peptide 3 = target: T12, chimeric peptide 3; assay: fluorescence polarization competition
T12 chain: Ac-PLHS[pT]PNGL

Molecule: CC(C)C[C@H](NC(=O)CNC(=O)[C@H](CC(N)=O)NC(=O)[C@@H]1CCCN1C(=O)[C@@H](NC(=O)[C@H](CO)NC(=O)[C@H](CS)NC(=O)[C@H](CC(C)C)NC(=O)[C@@H](N)CC(C)C)[C@@H](C)OP(=O)(O)O)C(=O)O [Compound 1, LLCS[pT]PNGL] (H-LLCS[pT]PNGL-OH)
- IC50 (PLK3 PBD (335–646)): > 600 µM

- Selectivity Index (PLK1 PBD (367–603)): 21,133
Molecule: CC[C@H](C)[C@H](NC(=O)[C@H](C)NC(=O)[C@@H](NC(=O)[C@H](CO)NC(=O)[C@H](Cc1c[nH]cn1)NC(=O)[C@H](CC(C)C)NC(=O)[C@@H]1CCCN1C(C)=O)[C@@H](C)OP(=O)(O)O)C(=O)O [Compound 4, Ac-PLHS[pT]AI] (Ac-PLHS[pT]AI-OH)

- PLK3 PBD FP IC50 (PLK3 PBD (335–646); competition with fluorescein tracer GPLATS[pT]PKNG, maximum 600 μM tested): lost all detectable affinity
Molecule: CC[C@H](C)[C@H](NC(=O)[C@H](C)NC(=O)[C@@H](NC(=O)[C@H](CO)NC(=O)[C@H](Cc1c[nH]cn1)NC(=O)[C@H](CC(C)C)NC(C)=O)[C@@H](C)OP(=O)(O)O)C(=O)O [Compound 5, Ac-LHS[pT]AI] (Ac-LHS[pT]AI-OH)

- Selectivity Index (PLK1 PBD (367–603)): 20,906
Molecule: CC(=O)N1CCC[C@H]1C(=O)N[C@@H](CC(C)C)C(=O)N[C@@H](Cc1c[nH]cn1)C(=O)N[C@@H](CO)C(=O)N[C@H](C(=O)N1CCC[C@H]1C(=O)N[C@@H](CCCCN)C(=O)N[C@@H](CC(N)=O)C(=O)NCC(=O)O)[C@@H](C)OP(=O)(O)O [Compound 9, Ac-PLHS[pT]PKNG] (Ac-PLHS[pT]PKNG-OH)

- PLK1 PBD FP IC50 (PLK1 PBD (367–603); competition with fluorescein tracer MAGPMQS[pT]PLNGAKK, maximum 600 μM tested): almost complete loss of binding
Molecule: LLCSTPNGL [Compound 2]

- Kd [1]: 0.0272 µM
- IC50 (chimeric peptide 9): 134 µM
- IC50 (FLIP 19): > 600 µM
- IC50 (PLK3 consensus peptide 7): 2.2 µM
- IC50 (Cdc25C phosphopeptide 1): > 600 µM
- IC50 (FLIP 21): 149 µM
- IC50 (chimeric peptide 8): 6.3 µM
- IC50 (PBIP phosphopeptide 5): > 600 µM
- IC50 (PBIP phosphopeptide 4): 270 µM
- IC50 (PBIP phosphopeptide 6): > 600 µM
- IC50 (chimeric peptide 3): 164 µM
B1: PLK3 PBD 335-646 (protein)
chain: T1 sequence (Q9H4B4 335-646)
